Data: US20260217797A1

Assays:
[1] = target: SARS-CoV-2 B.1.1.7 N501Y (Alpha) RBD (SARS-CoV-2) (UniProt P0DTC2); experiment: Octet BLI single point, monovalent
[2] = target: SARS-CoV-2 L452R RBD (Epsilon) (SARS-CoV-2) (UniProt P0DTC2); experiment: Octet BLI single point, monovalent

Row | Substance | Kd [1] [nM] | Kd [2] [nM]
1 | RGN10987 (antibody) | 15.1 | 17.4
2 | RGN10933 (antibody) | 6.57 | 9.52
